Patent US20100041597A1, “PEPTIDES TARGETED TO PROTEIN KINASE C ISOFORMS AND USES THEREOF” (priority 2005, published 2010)

What was measured:
[1] = target: PKC-βI (Homo sapiens, UniProt P05771); assay: ELISA-based competitive binding assay with purified PKC isoform; design: key to Affinity for PKC isoform βI: —: no detectable affinity; Low to very low affinity at 10X or 20X or both PRE concentrations in at least one cell line in the cell extract assay; Low affinity in purified isoform assay.; Moderate affinity at 10X or 20X or both PRE concentrations in at least one cell line in the cell extract assay.; High affinity at 10X or 20X or both PRE concentrations in at least one cell line in the cell extract assay; High affinity in purified isoform assay; conditions: for inhibition at 50 µM / inhibition at 100 µM / inhibition at 200 µM / calculated binding capacity (100-% n) after subtraction of the DMSO apparent binding capacity: purified PKC-βI; for inhibition at 50 µM / inhibition at 100 µM / inhibition at 200 µM: read-out: calculated binding capacity (100-% n) after subtraction of the DMSO apparent binding capacity; for Affinity for PKC isoform βI: Purified isoform, Table 20; for targeting of PKC-βI: purified isoform, Tables 14-19
Experimental: (§1) Peptides PRE 1, 2, 3, 4, 5, 6, 7, 8, 9, 10, 11, 12 and 13 (see Table 3) were tested for their ability to interfere with binding of PKC isoform-specific antibodies to their target PKC isoforms using a competitive binding assay and purified PKC isoforms.
(§2) Procedure: Competitive binding was assessed using a 96 well plate ELISA-based assay as described below.
(§3) Greiner 96 well ELISA plates were coated with the appropriate PKC isoform diluted in PBSN (PBS with Calcium/Magnesium+0.05% Sodium azide w/w). 50 μL/well at 250 ng/mL was used. Control wells contained PBSN only. Plates were incubated overnight at 4° C.
(§4) The plates were washed 3 times with 200 μL of dH2O per well, then 100 μL of blocking solution was added per well and the plate incubated for 1 h at 37° C. The washing steps with dH2O were repeated and 50 μL of the appropriate PRE solution (PRE stock solution [20 mM in DMSO] diluted in PBSN) was added and the plate incubated for 1 h at room temperature.
(§5) After incubation, 5 μL of 1.1:400 anti-PKC (isoform specific antibody) was added per well (to provide a final concentration of 1:4000). For PKC-epsilon, 1.1:800 dilution was used and for PKC-zeta a 1.1:100 dilution was used due to high and low binding affinity, respectively. The plates were then incubated 1 h at room temperature, followed by washing with dH2O as described above.
(§6) 50 μL of 1:1000 dilution of Alkaline Phosphatase (AP) conjugated antibody (anti-rabbit for all except zeta, which was anti-goat) was then added and the plate incubated for 1 h at room temperature. Washing with dH2O was then repeated. Finally, 100 μL of pNPP solution in pNPP buffer (2 mM MgCl2, 100 mM Sodium bicarbonate in water, pH 9.8) was added to all wells and incubated for 8 minutes for α, βI, βII ε, and ζ, or for 15-20 mins for […] (until sufficient coloration is observed). The reaction was stopped by addition of Stop solution (2N NaOH) and the absorbance at 405 nm was read on a Galaxy Plate reader.
(§7) Controls were PKC without PRE; blank controls, and controls containing the final concentrations of DMSO used for solubilizing the PREs. The non-specific binding capacity related to DMSO was also measured.
(§8) The antibodies used were as follows: anti-PKC α (Cat. No. SC-208); anti-PKC βI (Cat. No. SC-209); anti-PKC βII (Cat. No. SC-210); anti-PKC δ (Cat. No. SC-213); anti-PKC ε (Cat. No. SC-214); anti-PKC ζ (Cat. No. SC-216-G) (all from Santa Cruz Biotechnology, Inc.). The AP-conjugated antibodies were obtained from Jackson Immuno Research Laboratories (West Grove, Pa.).
(§9) Calculations: The OD values measured at 405 nm represent the free PKC coated per well.
(§10) OD405 PKC alone−Blank OD405 of each sample=OD405 coated isoform
(§11) (OD405 of sample X/OD405 coated isoform)×100=% n that represents the percentage of X binding compared to control.
(§12) 100-% n measures the relative binding capacity of X towards the tested isoform.
(§13) The apparent binding capacity of the DMSO samples was then subtracted from X binding capacity.
(§14) All measurements were made in triplicate and the values in the table represent the averaged calculated binding capacity values after subtraction of the DMSO apparent binding capacity (averaged from 12 values, respectively 10.80, 11.20 and 16.40 corresponding to the concentrations of DMSO used to dilute the […] at 200, 100 and 50 μM respectively). The results allow for quantitative comparison of the binding capacity of each PRE towards an individual isoform within each table, but not among isoforms due to differences in sensitivity of the specific antibodies toward the secondary antibody. This applies particularly to PKC-delta. As noted above, the colour development duration was increased 2-3 times and, as a result, the OD405 measurements may be overestimated for this isoform.

[2] = target: T1, PKC-ε (Homo sapiens, UniProt Q02156); assay: as above; design: key to Affinity for PKC isoform ε: —: no detectable affinity; Low to very low affinity at 10X or 20X or both PRE concentrations in at least one cell line in the cell extract assay; Low affinity in purified isoform assay.; Moderate affinity at 10X or 20X or both PRE concentrations in at least one cell line in the cell extract assay.; High affinity at 10X or 20X or both PRE concentrations in at least one cell line in the cell extract assay; High affinity in purified isoform assay; conditions: for inhibition at 50 µM / inhibition at 100 µM / inhibition at 200 µM / calculated binding capacity (100-% n) after subtraction of the DMSO apparent binding capacity: purified PKC-ε; for inhibition at 50 µM / inhibition at 100 µM / inhibition at 200 µM: read-out: calculated binding capacity (100-% n) after subtraction of the DMSO apparent binding capacity; for Affinity for PKC isoform ε: Purified isoform, Table 20
T1 sequence (Q02156 1-737): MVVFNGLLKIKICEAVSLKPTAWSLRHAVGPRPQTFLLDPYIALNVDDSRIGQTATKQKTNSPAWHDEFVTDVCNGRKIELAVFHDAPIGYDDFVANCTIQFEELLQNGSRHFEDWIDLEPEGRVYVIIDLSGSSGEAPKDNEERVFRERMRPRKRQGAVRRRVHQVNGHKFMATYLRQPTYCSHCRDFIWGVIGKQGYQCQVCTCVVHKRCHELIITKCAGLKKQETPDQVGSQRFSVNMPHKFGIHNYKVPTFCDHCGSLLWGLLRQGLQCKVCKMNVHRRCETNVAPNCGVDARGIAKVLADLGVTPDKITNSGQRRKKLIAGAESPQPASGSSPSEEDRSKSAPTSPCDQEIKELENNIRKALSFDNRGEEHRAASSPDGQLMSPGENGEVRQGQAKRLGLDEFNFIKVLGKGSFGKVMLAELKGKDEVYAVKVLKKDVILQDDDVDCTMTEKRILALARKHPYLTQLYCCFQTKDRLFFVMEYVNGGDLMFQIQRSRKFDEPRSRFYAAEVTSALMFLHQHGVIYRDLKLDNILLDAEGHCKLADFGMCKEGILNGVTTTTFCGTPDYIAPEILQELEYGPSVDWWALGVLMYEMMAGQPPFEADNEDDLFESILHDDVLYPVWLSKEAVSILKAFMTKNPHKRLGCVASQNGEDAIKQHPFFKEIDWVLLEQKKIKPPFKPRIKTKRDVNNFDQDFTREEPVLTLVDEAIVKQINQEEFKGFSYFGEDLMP
Experimental: as §1, §2, §3, §4, §5, §6, §7, §8, §9, §10, §11, §12, §13, §14

Sequence of PKC-βI (P05771 whole entry, canonical isoform): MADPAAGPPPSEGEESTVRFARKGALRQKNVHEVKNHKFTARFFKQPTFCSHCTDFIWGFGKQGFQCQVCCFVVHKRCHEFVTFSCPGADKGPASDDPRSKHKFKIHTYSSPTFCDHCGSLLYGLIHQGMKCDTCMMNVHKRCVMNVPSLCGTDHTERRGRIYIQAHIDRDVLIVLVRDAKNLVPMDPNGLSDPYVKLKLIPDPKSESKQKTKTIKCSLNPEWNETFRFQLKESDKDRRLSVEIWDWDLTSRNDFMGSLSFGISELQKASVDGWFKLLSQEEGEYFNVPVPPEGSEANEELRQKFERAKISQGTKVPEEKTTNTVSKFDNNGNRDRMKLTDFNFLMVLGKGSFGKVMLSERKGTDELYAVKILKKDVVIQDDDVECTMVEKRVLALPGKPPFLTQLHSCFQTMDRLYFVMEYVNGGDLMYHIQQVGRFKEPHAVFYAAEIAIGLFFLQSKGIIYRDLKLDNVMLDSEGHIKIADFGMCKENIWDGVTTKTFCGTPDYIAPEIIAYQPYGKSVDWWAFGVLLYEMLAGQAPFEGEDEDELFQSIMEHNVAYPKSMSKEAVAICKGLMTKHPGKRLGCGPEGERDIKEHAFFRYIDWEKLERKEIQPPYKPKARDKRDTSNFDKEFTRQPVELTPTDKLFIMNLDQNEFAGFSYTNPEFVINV

## Ac-AKGIQEVKGGDAQNLIGISI-NH2 [PRE 3]
[1]; PRE 50 μM
  inhibition at 50 µM: 26%
[1]; PRE 100 μM
  inhibition at 100 µM: 22.5%
[1]; PRE 200 μM
  inhibition at 200 µM: 23%
[1]
  Affinity for PKC isoform βI: H
  targeting of PKC-βI: targeted most strongly
[2]; PRE 50 μM
  inhibition at 50 µM: 34%
[2]; PRE 100 μM
  inhibition at 100 µM: 31.5%
[2]; PRE 200 μM
  inhibition at 200 µM: 31%
[2]
  Affinity for PKC isoform ε: H
[2]; purified isoform, Tables 14-19
  targeting of PKC-ε: targeted most strongly

## Ac-AKGIQEVKGGKDAQNLIGISI-NH2 [PRE 5]
[1]; PRE 50 μM
  inhibition at 50 µM: 0%
[1]; PRE 100 μM
  inhibition at 100 µM: 0%
[1]; PRE 200 μM
  inhibition at 200 µM: 0%
[1]
  Affinity for PKC isoform βI: —
[2]; PRE 50 μM
  inhibition at 50 µM: 0%
[2]; PRE 100 μM
  inhibition at 100 µM: 0%
[2]; PRE 200 μM
  inhibition at 200 µM: 1.8%
[2]
  Affinity for PKC isoform ε: —

## Ac-ISIGILNQADK-NH2 [PRE 10]
[1]; PRE 50 μM
  calculated binding capacity (100-% n) after subtraction of the DMSO apparent binding capacity: 3.77
[1]; PRE 100 μM
  calculated binding capacity (100-% n) after subtraction of the DMSO apparent binding capacity: 4.35
[1]
  Affinity for PKC isoform βI: —
[2]; PRE 50 μM
  calculated binding capacity (100-% n) after subtraction of the DMSO apparent binding capacity: 0.91
[2]; PRE 200 μM
  calculated binding capacity (100-% n) after subtraction of the DMSO apparent binding capacity: 1.75
[2]
  Affinity for PKC isoform ε: —

## Ac-ISIGILQNADK-NH2 [PRE 7]
[1]
  Affinity for PKC isoform βI: —
[2]
  Affinity for PKC isoform ε: L

## Ac-KDANQLIGISI-NH2 [PRE 6]
[1]
  Affinity for PKC isoform βI: L
[2]; PRE 50 μM
  calculated binding capacity (100-% n) after subtraction of the DMSO apparent binding capacity: 2.61
[2]; PRE 100 μM
  calculated binding capacity (100-% n) after subtraction of the DMSO apparent binding capacity: 0.46
[2]
  Affinity for PKC isoform ε: —

## Ac-KDAQNLI-NH2 [PRE 12]
[1]
  Affinity for PKC isoform βI: —
[2]
  Affinity for PKC isoform ε: —

## Ac-KDAQNLIGISI-NH2 [PRE 4, Ac-KDAQNLIGISI-NH2]
[1]; PRE 50 μM
  inhibition at 50 µM: 6.02%
[1]; PRE 100 μM
  inhibition at 100 µM: 15.7%
[1]; PRE 200 μM
  inhibition at 200 µM: 7.46%
[1]
  Affinity for PKC isoform βI: L
[2]; PRE 50 μM
  inhibition at 50 µM: 0%
[2]; PRE 100 μM
  inhibition at 100 µM: 0%
[2]; PRE 200 μM
  inhibition at 200 µM: 2.58%
[2]
  Affinity for PKC isoform ε: —

## Ac-RDAQNLI-NH2 [PRE 13]
[1]
  Affinity for PKC isoform βI: —
[2]
  Affinity for PKC isoform ε: —

## Ac-RDAQNLIGISI-NH2 [PRE 11]
[1]; PRE 50 μM
  calculated binding capacity (100-% n) after subtraction of the DMSO apparent binding capacity: 9.86
[1]; PRE 100 μM
  calculated binding capacity (100-% n) after subtraction of the DMSO apparent binding capacity: 14.23
[1]; PRE 200 μM
  calculated binding capacity (100-% n) after subtraction of the DMSO apparent binding capacity: 12.5
[1]
  Affinity for PKC isoform βI: —
[2]
  Affinity for PKC isoform ε: L

## Ac-isigilgnadk-NH2 [PRE 9]
[1]; PRE 50 μM
  calculated binding capacity (100-% n) after subtraction of the DMSO apparent binding capacity: 11.53
[1]; PRE 100 μM
  calculated binding capacity (100-% n) after subtraction of the DMSO apparent binding capacity: 8.82
[1]; PRE 200 μM
  calculated binding capacity (100-% n) after subtraction of the DMSO apparent binding capacity: 5.72
[1]
  Affinity for PKC isoform βI: L
[2]; PRE 50 μM
  calculated binding capacity (100-% n) after subtraction of the DMSO apparent binding capacity: 16.35
[2]; PRE 100 μM
  calculated binding capacity (100-% n) after subtraction of the DMSO apparent binding capacity: 8.53
[2]
  Affinity for PKC isoform ε: L

## ILEDKGGDAQNLIGISI [PRE 8]
[1]
  Affinity for PKC isoform βI: —
[2]
  Affinity for PKC isoform ε: —

## RRKKGGKDFVVKR [PRE 1]
[1]
  Affinity for PKC isoform βI: H
  targeting of PKC-βI: targeted most strongly
[2]; PRE 100 μM
  calculated binding capacity (100-% n) after subtraction of the DMSO apparent binding capacity: 5.47
[2]; PRE 200 μM
  calculated binding capacity (100-% n) after subtraction of the DMSO apparent binding capacity: 0.83
[2]
  Affinity for PKC isoform ε: —
